Test results reported in patent publication US20170082609A1.

Experiments:
[1] = target: CDHR3 Cys529→Tyr variant (human) (UniProt Q6ZTQ4); assay: virus bound to HeLa-E8 cells 2 h p.i., viral RNA by real-time PCR
[2] = target: CDHR3 Cys529→Tyr variant (human) (UniProt Q6ZTQ4); assay: virus bound to HeLa-E8 monolayers, viral RNA by real-time PCR
[3] = target: CDHR3 Cys529→Tyr variant (human) (UniProt Q6ZTQ4); assay: cell-based or functional assay

UniProt Q6ZTQ4, sequence (Q6ZTQ4 other isoform, or with tags, fused parts or gaps mutant): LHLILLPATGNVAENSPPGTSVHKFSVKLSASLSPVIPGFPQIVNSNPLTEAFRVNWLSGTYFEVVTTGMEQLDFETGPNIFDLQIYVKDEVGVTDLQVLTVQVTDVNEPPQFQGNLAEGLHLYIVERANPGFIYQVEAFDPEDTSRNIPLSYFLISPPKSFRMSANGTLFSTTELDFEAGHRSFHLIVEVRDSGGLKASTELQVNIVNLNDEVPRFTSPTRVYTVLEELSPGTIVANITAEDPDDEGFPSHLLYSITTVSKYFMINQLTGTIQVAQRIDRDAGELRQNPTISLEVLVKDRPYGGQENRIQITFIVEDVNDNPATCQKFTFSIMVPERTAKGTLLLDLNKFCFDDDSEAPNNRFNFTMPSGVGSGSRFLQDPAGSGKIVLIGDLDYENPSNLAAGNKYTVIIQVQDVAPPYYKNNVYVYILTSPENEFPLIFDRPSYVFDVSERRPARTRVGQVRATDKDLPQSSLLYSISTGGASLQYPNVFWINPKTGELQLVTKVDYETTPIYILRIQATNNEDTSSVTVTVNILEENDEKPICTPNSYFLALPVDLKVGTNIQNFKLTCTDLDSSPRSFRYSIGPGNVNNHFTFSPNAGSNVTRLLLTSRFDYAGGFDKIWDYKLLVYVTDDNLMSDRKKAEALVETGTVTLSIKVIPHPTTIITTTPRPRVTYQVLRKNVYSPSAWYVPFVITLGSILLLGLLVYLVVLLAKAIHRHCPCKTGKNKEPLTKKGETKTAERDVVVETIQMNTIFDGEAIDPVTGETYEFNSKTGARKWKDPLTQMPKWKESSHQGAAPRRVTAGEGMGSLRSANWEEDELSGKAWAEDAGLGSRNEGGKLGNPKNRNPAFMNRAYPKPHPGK

## HeLa-E8 adapted RV-C15 (RV-C15a)
[1]
  binding compared to that of RV-C15-wt: > 1 log
[2]
  fold increase of virus binding against the parental isolate: > 10 fold
[3]
  replication in HeLa-E8 compared to control HeLa cells (orders of magnitude): 2
